Results on six molecules are retold here after patent publication US20060003399A1, “High throughput actin polymerization assay” (Cytokinetics, Inc., priority 2004, published 2006).

Entries after “also recorded” stand apart in the source; their conditions may differ. Read-outs that look alike come from different tables or passages of the source.

The target in data set [1] is Arp2/3. Nature of the data set: Activities of WASP/N-WASP proteins (Table 4). Format: biochemical. An excerpt:
The term “variant” or “analogue” generally refers to proteins that are functional equivalents to a native sequence that have similar amino acid sequences and retain, to some extent, one of the activities of the corresponding native protein. Variants/analogues include fragments that retain one or more activities of the corresponding native protein. Examples of WASP and N-WASP activity include, but are not limited to, capacity to: 1) bind Arp2/3 and actin; 2) activate the actin nucleation activity of Arp2/3 (descriptions of assays to detect nucleation activity are provided below); 3) bind an upstream regulator; 4) be regulated by one or more upstream regulators, thereby rendering the WASP or N-WASP protein able to activate the nucleation activity of Arp2/3; and 5) bind downstream regulators initiating signal transduction cascades. Some of the WASP and N-WASP proteins that are provided are able to recapitulate the full activity of WASP or N-WASP, which means that these proteins have all five of the activities just listed. […]
A third class of NPF proteins that can be utilized in some assays include WASP, N-WASP and SCAR proteins that include the WH1 domain but in which the PolyPro region is (e.g., deleted). A fourth class of NPF proteins that can be utilized in some assays are WASP, N-WASP and SCAR deletion mutants in which the PolyPro region is maintained but an N-terminal region (e.g., WH1 domain) is at least partially removed. Some proteins in this class are ones that include the B, CRIB/GBD (WASP and N-WASP), PolyPro and VCA domains, but in which some or all of the WH1 has been removed. One specific example is 98N-WASP, which includes amino acids 98-501 of SEQ ID NO:4. Another specific example is the 105WASP protein, which includes amino acids 105-501 of SEQ ID NO:2 (see FIG. 4B).
As indicated in this table, specific examples of fusion proteins that can be utilized include those that include a segment that encodes full-length WASP or N-WASP, including: Myc-WASP-TAP (SEQ ID NO:14); and Myc-N-WASP-TAP (SEQ ID NO: 16). Examples of fusion proteins that include a WASP or N-WASP deletion mutant domain include: GST-105WASP (SEQ ID NO:18); Myc-105WASP-TAP (SEQ ID NO:20); GST-tev-98N-WASP (SEQ ID NO:22); and Myc-98N-WASP-TAP (SEQ ID NO:24). The TAP tag in these particular fusion proteins has the general structure CBP-tev-ProtA (SEQ ID NO:36). Fusion proteins such as those listed in Table 4 can in some instances be utilized directly, or after one or both of the C- and N-terminal tags are removed. For example, the fusion proteins listed in Table 4 as having a TAP tag can be used once the TAP tag has been cleaved off and/or after the C-terminal tag has been removed.

In data set [2] the target is T1, actin (Gallus gallus, UniProt P68139).
T1 construct: from tissue
Nature of the data set: Formin nucleated actin/pyrene-actin polymerization assay. Format: biochemical, chicken. Here is the method: G-Actin: Typically chicken actin was used. G-actin can be purchased from Cytoskeleton, Inc. It can also be purified according to Pardee and Spudich (1982) Methods of Cell Biol. 24:271-89, and subsequently gel filtered as discussed by MacLean-Fletcher and Pollard (1980) Biochem Biophys. Res. Commun. 96:18-27.
Acrylodan-Actin and Pyrene-Actin: Typically chicken actin was utilized. Pyrene labeled actin was prepared according to methods described in Kouyama and Mihashi (1981) Eur. J. Biochem. 114:33-38 or as described by Cooper et al. (1983) J. Muscle Res. Cell Motility 4:253-62. Alternatively, it can be purchased from Cytoskeleton, Inc. Acrylodan-labeled actin was prepared by modification of the pyrene-labeling protocol described in Cooper et al. (1983) J. Muscle Res. Cell Motility 4:253-62.
G-actin and pyrene-actin were prepared as described in Example 7.
Activity of purified formins from the constructs described above in Example 12 was assessed in an actin/pyrene-actin polymerization assay. Polymerization was carried out in G-buffer and was initiated by addition of 10× polymerization mix.
Gel filtered actin and pyrene-actin were diluted in G-buffer to the indicated final concentrations. Either purified C. albicans formin domains or formin domain-enriched fractions were added together with polymerization mix to start actin polymerization. Formin nucleated actin polymerization was monitored on a Gemini plate reader (excitation at 365 nm and emission at 407 nm). Protein components in the actin polymerization assay are provided below.

Data set [3] in a line: Storage stability of purified formin proteins at -80 C. Format: physicochemical. The settings on record: storage at −80° C. As for the experimental part: The formins were purified on either Ni-NTA column (His6 tagged proteins) or Gluthatione-Sepharose (GST tagged proteins). Resins were equilibrated with lysis buffer. Clear crude extracts were loaded onto column, columns were washed with lysis buffer followed by washing buffer (50 mM Tris pH 8.0, 50 mM KCl, 1 mM DTT, 1 mM MgCl, 3% glycerol), and proteins were eluted with either 300 mM imidazole (His6-tagged proteins) or 10 mM glutathione (GS-tagged proteins). Eluted proteins were analyzed by SDS PAGE (4-20%) (Invitrogen, San Diego Calif.), fractions were pooled and protein concentrations were measured by Coomassie Plus (Bradford)(Bio-Rad, Hercules, Calif.). Purified proteins were “drop-frozen” in liquid nitrogen and stored at −80° C.

B1: WASP VCA Domain: VCA domain of WASP (SEQ ID NO:6) (protein, listed as Homo sapiens)
chain: GGRGALLDQIRQGIQLNKTPGAPESSALQPPPQSSEGLVGALMHVMQKRSRAIHSSDEGEDQAGDEDEDDEWDD
modifications: (1)..(74) WASP VCA Domain
For B1, in data set [1], the “Activate Arp2/3?” value is on record as “Yes” and the “Regulated By Which Upstream Regulators?” value was “None”.

B2: His6 tagged C. albicans FH1-FH2 domain: C. albicans FOR1 M972 to K1598 (FH1 and FH2 domains), C-terminally tagged with His6 (protein)
chain: MDPKFLQELSLKVGKAEPIQDANNKNQFGGPLSSSPEDVSQKHKTSGDSSDKDKVLSSPISSNDIKSPETGNSTTSSAAPPPPPPPPPPPPPPLPPILGGNNSSAAPPPPPPPPPPPAFLNGSGSVIPPAPPLPPPSSGRSSRSVPSTVTKSSGSAFDKIPRPKKKLKQLHWEKIDHSQVGNSFWNDPNTHTLVDDLMSKGIFDEIELIFAAKEAKKLATKKKEDLDKVTFLARDISQQFSINLHAFNSFSDEEFVLKVLRCDKDVLTNPAVLDFFGKEDIVEITNTLARNFEPYSTDYKTEEITKPEKDPNELQRPDRIYLELMYNLQHYWKSRTRALNVVVNYDKDVYEYVKKLRLIDEAVDSIKNSKHLKGVFEIILAVGNYMNDSAKQAHGFKLSSLQRLSFMKDEKNSMTFLHYVEKVIRTQYPEFLEFINELSCCNEITKFSIENINNDCKEYARAIKNVQSSIDIGNLSDVSKFHPSDRVLKAVLPALPRAKRKAELLLDQANYTMKEFDDLMKYFGEDPTDQFVKNSFISKFTDFMKDFKRVQAENIKREEELRVYEQRKKLLEKPKSSNNGDSNASDQDGESNEGDGGVMDSLLQRLKAAAPTKGESASARKKALMRK
modifications: left off: small tags and cut ends
Consider B2, for which the “formin concentration used to observe saturation” value in data set [2] was 300 to 500 nM. For the same molecule, the “actin nucleation activity of the formin (in words)” value in data set [2] (actin […], pyrene actin 0.5 μM) is recorded as “active, i.e., nucleates actin polymerization”. Also, the “time stable at −80° C.” value in data set [3] is on record as “several”.

B3: GST tagged C. albicans FH1-FH2 domain: C. albicans FOR1 M972 to K1598 (FH1 and FH2 domains), N-terminally tagged with GST-TEV (protein)
chain: B2 chain
modifications: left off: a dimerising Fc or GST
notes: C. albicans FOR1 M972 to K1598 (FH1 and FH2 domains), N-terminally tagged with GST-TEV
With B3, in data set [2], the “biochemical properties compared with the other formin constructs (in words)” value is “best biochemical properties in terms of solubility, stability and activity”. In addition, in data set [2] (100 nM formin), the lag phase entry is reported as “less than 100 s” and the “time to reach saturation phase” value came out at 400 s. Moreover, the “activity relative to the formin purified in the single step purification” value in data set [2] (after further purification on SP Sepharose) is “approximately 3 fold”. Moreover, the “time stable at −80° C.” value in data set [3] was “more than 6 months”.

B4: 98 N-WASP: amino acids 98-501 of SEQ ID NO:4 (protein, listed as Homo sapiens)
chain: FVYNSPRGYFHTFAGDTCQVALNFANEEEAKKFRKAVTDLLGRRQRKSEKRRDPPNGPNLPMATVDIKNPEITTNRFYGPQVNNISHTKEKKKGKAKKKRLTKADIGTPSNFQHIGHVGWDPNTGFDLNNLDPELKNLFDMCGISEAQLKDRETSKVIYDFIEKTGGVEAVKNELRRQAPPPPPPSRGGPPPPPPPPHNSGPPPPPARGRGAPPPPPSRAPTAAPPPPPPSRPSVAVPPPPPNRMYPPPPPALPSSAPSGPPPPPPSVLGVGPVAPPPPPPPPPPPGPPPPPGLPSDGDHQVPTTAGNKAALLDQIREGAQLKKVEQNSRPVSCSGRDALLDQIRQGIQLKSVADGQESTPPTPAPTSGIVGALMEVMQKRSKAIHSSDEDEDEDDEEDFEDDD
modifications: (1)..(505) FL-N-WASP
In the case of B4, in data set [1], the “Activate Arp2/3?” value is “Yes”; the “Regulated By Which Upstream Regulators?” value is “Cdc42, PIP2, Nck and Rac1”. In addition, in data set [1] (listed as 98N-WASP), the “Activate Arp2/3?” value is on record as “activate actin nucleation by Arp2/3”; the “Regulated By Which Upstream Regulators?” value was “regulated by Cdc42, PIP2, Nck1, and Rc1”.

B5: GST tagged C. albicans FH2 domain: C. albicans FOR1 A1127 to K1598 (FH2 domain only), N-terminally tagged with GST-TEV (protein)
chain: AFDKIPRPKKKLKQLHWEKIDHSQVGNSFWNDPNTHTLVDDLMSKGIFDEIELIFAAKEAKKLATKKKEDLDKVTFLARDISQQFSINLHAFNSFSDEEFVLKVLRCDKDVLTNPAVLDFFGKEDIVEITNTLARNFEPYSTDYKTEEITKPEKDPNELQRPDRIYLELMYNLQHYWKSRTRALNVVVNYDKDVYEYVKKLRLIDEAVDSIKNSKHLKGVFEIILAVGNYMNDSAKQAHGFKLSSLQRLSFMKDEKNSMTFLHYVEKVIRTQYPEFLEFINELSCCNEITKFSIENINNDCKEYARAIKNVQSSIDIGNLSDVSKFHPSDRVLKAVLPALPRAKRKAELLLDQANYTMKEFDDLMKYFGEDPTDQFVKNSFISKFTDFMKDFKRVQAENIKREEELRVYEQRKKLLEKPKSSNNGDSNASDQDGESNEGDGGVMDSLLQRLKAAAPTKGESASARKKALMRK
modifications: left off: a dimerising Fc or GST
notes: C. albicans FOR1 A1127 to K1598 (FH2 domain only), N-terminally tagged with GST-TEV
As for B5, in data set [3], the “time stable at −80° C.” value is “several”.

B6: 105WASP: amino acids 105-501 of SEQ ID NO:2; WASP lacking the WH1 domain (protein, listed as Homo sapiens)
chain: LVYSTPTPFFHTFAGDDCQAGLNFADEDEAQAFRALVQEKIQKRNQRQSGDRRQLPPPPTPANEERRGGLPPLPLHPGGDQGGPPVGPLSLGLATVDIQNPDITSSRYRGLPAPGPSPADKKRSGKKKISKADIGAPSGFKHVSHVGWDPQNGFDVNNLDPDLRSLFSRAGISEAQLTDAETSKLIYDFIEDQGGLEAVRQEMRRQEPLPPPPPPSRGGNQLPRPPIVGGNKGRSGPLPPVPLGIAPPPPTPRGPPPPGRGGPPPPPPPATGRSGPLPPPPPGAGGPPMPPPPPPPPPPPSSGNGPAPPPLPPALVPAGGLAPGGGRGALLDQIRQGIQLNKTPGAPESSALQPPPQSSEGLVGALMHVMQKRSRAIHSSDEGEDQAGDEDEDDEWD
modifications: (1)..(502) FL-WASP
Regarding B6, in data set [1], the “Activate Arp2/3?” value was “activate actin nucleation by Arp2/3 and Yes”; the “Regulated By Which Upstream Regulators?” value was “regulated by Cdc42, PIP2, Nck1, and Rc1; also recorded: Cdc42, PIP2, Nck and Rac1”.
